Three molecules from article PMC8690919 (Theranostics, 2022) can be followed below.

The assay deals with T1, SARS-CoV-2 receptor-binding domain (RBD), His-tagged (SARS-CoV-2, UniProt P0DTC2).
T1 construct: also called viral RBD; His-tagged RBD
Nature of the assay: crystal structure. Conditions: both partners purified.

B1: FD-5D Fab (Fab, V domains shown)
VH: EVQLVESGGGLVQPGGSLRLSCAASGFTFSSYSMNWVRQAPGKGLEWVSYISSSSSTIYYADSVKGRFTISRDNAKNSLYLQMNSLRAEDTAVYYCASPGGITAAGTSVLFGYYGMDVWGQGTTVTVSS
VL: not shown
As for B1, the binding result was “binds”.

B2: FI-3A Fab (Fab, V domains shown)
VH: EVQLLESGGGLIQPGGSLRLSCAASGFTVSSNYMSWVRQAPGKGLEWVSVIYSGGSTYYADSVKGRFTISRDNSKNTLYLQMNSLRAEDTAVYYCARDHVRPGMNIWGQGTMVTVSS
VL: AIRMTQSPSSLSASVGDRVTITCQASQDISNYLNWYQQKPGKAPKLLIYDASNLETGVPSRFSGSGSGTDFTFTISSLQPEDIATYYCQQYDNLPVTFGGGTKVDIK
In the case of B2, the binding result is given as “binds”.

B3: FD-11A Fab (Fab, V domains shown)
VH: EVQLVESGGGVVQPGRSLRLSCAASGFTFSSYGMHWVRQAPGKGLEWVAVIWYDGSNKYYADSVKGRFTISRDNSKNTLYLQMNSLRAEDTAVYYCAKGPDILTGYYNYYYYGMDVWGQGTMVTVSS
VL: QSVLTQPPSVSGAPGQRVTISCTGSSSNIGAGYDVHWYQQLPGTAPKLLIYGNSNRPSGVPDRFSGSKSGTSASLAITGLQAEDEADYYCQSYDSSLSGFYVVFGGGTKLTVL
On to B3, for which the binding result is “binds”.
